Read-outs that look alike come from different tables or passages of the source.
System: AR42J tumor-bearing mice
Conditions: male, athymic nu/nu, mouse, in vivo, iv, 0.3 nmol

C[C@@H](O)[C@H](NC(=O)[C@@H]1CSSC[C@H](NC(=O)[C@@H](Cc2ccccc2)NC(=O)CN2CCN(CC(=O)O)CCN(CC(=O)O)CCN(CC(=O)O)CC2)C(=O)N[C@@H](Cc2ccc(O)cc2)C(=O)N[C@H](Cc2c[nH]c3ccccc23)C(=O)N[C@@H](CCCCN)C(=O)N[C@@H]([C@@H](C)O)C(=O)N1)C(=O)O [^111In-DOTATATE, metal not drawn]
Tumor uptake (10 min): 6.3 ± 1.3 %IA/g
Renal activity (1 h): 10.9 ± 0.6 %IA/g
Tumor uptake (1 h): 6.0 ± 1.2 %IA/g

Source: article PMC5118228 (EJNMMI Research, 2016)
